Data on two molecules can be found in publication PMC11087797 (2024).

Some targets named below: LA34(3-11)-HLA-E*01:03; LCw3(3-11)-HLA-E*01:03; LA1(3-11)-HLA-E*01:03; LB7(3-11)-HLA-E*01:03; LA80(3-11)-HLA-E*01:03.
Common to all, as to test: SPR; peptide …

B1: soluble CD94-NKG2C NK cell receptor ectodomains (receptor)
chain 1: KNSFTKLSIEPAFTPGPNIELQKDSDCCSCQEKWVGYRCNCYFISSEQKTWNESRHLCASQKSSLLQLQNTDELDFMSSSQQFYWIGLSYSEEHTAWLWENGSALSQYLFPSFETFNTKNCIAYNPNGNALDESCEDKNRYICKQQLI
chain 2: not shown
As for B1, the Kd with LA34(3-11)-HLA-E*01:03 is 13.5 µM; with LCw3(3-11)-HLA-E*01:03, 22 µM; with LA1(3-11)-HLA-E*01:03, 11.3 µM; in the assay with LB7(3-11)-HLA-E*01:03 it was 25.5 µM; with LA80(3-11)-HLA-E*01:03, 42.8 µM.

B2: soluble CD94-NKG2A NK cell receptor ectodomains (receptor)
chain 1: B1 chain 1
chain 2: not shown
As for B2, the Kd in the assay with LA34(3-11)-HLA-E*01:03 was 1.8 µM; with LCw3(3-11)-HLA-E*01:03, 1.5 µM; in the assay with LA1(3-11)-HLA-E*01:03, 1.5 µM; with LB7(3-11)-HLA-E*01:03 it was 3.3 µM; with LA80(3-11)-HLA-E*01:03 it was 2.1 µM.

By Kd is commonly meant a measure of binding affinity in units of concentration. Read a high Kd as lower affinity.
